Reference: patent US20240402174A1 (Takeda / Millennium, published 2024)

Key:
Assay in all cases: multiplex microsphere immunoassay
GI.7 VLP = biological target: T1, GI.7 VLP (norovirus Hu/GI.7/Providence191/2010/USA)
T1 construct: also called GI.7 Providence
T1 chain: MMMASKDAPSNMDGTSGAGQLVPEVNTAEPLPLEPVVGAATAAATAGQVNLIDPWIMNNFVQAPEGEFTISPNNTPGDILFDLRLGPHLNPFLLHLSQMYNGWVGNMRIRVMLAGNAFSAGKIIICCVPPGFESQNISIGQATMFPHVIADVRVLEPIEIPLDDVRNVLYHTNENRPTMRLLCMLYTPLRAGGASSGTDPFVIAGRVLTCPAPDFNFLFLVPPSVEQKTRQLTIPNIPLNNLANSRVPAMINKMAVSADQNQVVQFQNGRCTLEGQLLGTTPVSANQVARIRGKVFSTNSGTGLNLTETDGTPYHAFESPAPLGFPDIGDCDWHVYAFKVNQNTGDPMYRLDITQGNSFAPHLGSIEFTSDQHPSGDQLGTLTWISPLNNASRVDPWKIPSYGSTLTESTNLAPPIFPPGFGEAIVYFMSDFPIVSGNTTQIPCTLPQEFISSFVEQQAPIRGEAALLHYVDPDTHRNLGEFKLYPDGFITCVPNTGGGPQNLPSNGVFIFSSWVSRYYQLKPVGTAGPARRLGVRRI

GI.3 VLP = biological target: T2, GI.3 VLP (norovirus Hu/GI.3/JKPG_883/SWE/2007)
T2 construct: also called GI.3 Sweden
T2 chain: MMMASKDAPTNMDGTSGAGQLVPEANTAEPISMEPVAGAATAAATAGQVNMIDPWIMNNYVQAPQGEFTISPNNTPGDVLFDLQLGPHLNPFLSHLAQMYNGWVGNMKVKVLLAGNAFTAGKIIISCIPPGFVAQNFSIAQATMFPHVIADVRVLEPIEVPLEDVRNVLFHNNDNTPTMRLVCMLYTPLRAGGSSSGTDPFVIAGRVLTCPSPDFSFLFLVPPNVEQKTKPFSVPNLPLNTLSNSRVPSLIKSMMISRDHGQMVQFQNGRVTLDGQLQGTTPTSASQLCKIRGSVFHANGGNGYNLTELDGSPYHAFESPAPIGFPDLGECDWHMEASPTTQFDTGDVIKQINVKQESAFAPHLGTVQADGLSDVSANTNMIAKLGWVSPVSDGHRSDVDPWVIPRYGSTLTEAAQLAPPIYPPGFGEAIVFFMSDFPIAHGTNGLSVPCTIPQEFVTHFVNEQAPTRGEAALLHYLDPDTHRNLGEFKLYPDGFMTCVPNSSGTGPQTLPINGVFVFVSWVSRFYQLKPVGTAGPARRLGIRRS

GI.6 VLP = biological target: T3, GI.6 VLP (norovirus Hu/GI.6/TCH-099/USA/2003)
T3 construct: also called GI.6 USA
T3 chain: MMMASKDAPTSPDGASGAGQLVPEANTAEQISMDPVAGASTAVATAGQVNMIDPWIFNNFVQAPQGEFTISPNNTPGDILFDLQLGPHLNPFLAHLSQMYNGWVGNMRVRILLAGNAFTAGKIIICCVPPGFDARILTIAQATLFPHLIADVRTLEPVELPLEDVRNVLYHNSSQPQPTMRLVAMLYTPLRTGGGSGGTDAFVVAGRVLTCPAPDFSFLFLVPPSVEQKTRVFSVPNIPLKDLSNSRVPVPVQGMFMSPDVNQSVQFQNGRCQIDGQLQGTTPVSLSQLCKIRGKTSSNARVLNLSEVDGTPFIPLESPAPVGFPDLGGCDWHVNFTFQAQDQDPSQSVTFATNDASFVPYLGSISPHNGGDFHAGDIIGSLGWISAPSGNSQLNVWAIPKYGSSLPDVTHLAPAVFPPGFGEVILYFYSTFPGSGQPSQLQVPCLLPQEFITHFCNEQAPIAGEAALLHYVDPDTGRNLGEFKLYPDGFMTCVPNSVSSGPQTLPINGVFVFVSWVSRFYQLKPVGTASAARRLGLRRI

GI.4 VLP = biological target: T4, GI.4 VLP (norovirus Hu/GI.4/1643/2008/US)
T4 construct: also called GI.4 US
T4 chain: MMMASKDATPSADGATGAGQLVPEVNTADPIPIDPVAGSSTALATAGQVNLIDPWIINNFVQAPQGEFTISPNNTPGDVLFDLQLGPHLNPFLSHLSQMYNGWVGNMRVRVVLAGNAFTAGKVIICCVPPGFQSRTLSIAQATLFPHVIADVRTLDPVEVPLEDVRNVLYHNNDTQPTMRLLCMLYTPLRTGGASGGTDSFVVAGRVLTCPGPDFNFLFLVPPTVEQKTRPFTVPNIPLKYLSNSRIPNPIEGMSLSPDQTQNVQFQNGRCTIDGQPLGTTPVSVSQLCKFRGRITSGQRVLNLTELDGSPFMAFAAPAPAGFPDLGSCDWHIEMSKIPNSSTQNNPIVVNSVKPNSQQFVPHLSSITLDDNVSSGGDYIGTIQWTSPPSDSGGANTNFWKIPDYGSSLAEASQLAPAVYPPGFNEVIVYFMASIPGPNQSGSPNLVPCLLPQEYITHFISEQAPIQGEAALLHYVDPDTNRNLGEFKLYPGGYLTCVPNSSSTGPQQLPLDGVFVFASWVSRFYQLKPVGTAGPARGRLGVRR

GI.5 VLP = biological target: T5, GI.5 VLP (norovirus …)
T5 construct: also called GI.5 Siklos
T5 chain: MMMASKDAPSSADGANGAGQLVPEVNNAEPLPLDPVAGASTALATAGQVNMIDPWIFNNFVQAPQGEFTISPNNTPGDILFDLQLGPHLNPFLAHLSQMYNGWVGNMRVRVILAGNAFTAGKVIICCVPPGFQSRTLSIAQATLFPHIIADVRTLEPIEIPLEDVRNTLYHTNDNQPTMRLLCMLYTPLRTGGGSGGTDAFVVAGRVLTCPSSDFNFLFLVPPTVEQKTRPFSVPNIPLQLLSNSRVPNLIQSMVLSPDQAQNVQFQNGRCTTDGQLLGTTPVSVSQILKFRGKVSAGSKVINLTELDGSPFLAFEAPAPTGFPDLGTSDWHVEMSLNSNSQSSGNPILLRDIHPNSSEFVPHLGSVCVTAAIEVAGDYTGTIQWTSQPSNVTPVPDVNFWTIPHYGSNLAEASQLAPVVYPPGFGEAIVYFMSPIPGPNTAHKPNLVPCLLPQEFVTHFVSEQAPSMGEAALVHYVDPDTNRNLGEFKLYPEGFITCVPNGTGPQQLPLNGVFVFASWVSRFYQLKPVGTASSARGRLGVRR

GI.2 VLP = biological target: T6, GI.2 VLP (norovirus Hu/GI.2/Jingzhou/2013401/CHN, UniProt Q04542 1-546)
T6 construct: also called GI.2 Jingzhou
T6 chain: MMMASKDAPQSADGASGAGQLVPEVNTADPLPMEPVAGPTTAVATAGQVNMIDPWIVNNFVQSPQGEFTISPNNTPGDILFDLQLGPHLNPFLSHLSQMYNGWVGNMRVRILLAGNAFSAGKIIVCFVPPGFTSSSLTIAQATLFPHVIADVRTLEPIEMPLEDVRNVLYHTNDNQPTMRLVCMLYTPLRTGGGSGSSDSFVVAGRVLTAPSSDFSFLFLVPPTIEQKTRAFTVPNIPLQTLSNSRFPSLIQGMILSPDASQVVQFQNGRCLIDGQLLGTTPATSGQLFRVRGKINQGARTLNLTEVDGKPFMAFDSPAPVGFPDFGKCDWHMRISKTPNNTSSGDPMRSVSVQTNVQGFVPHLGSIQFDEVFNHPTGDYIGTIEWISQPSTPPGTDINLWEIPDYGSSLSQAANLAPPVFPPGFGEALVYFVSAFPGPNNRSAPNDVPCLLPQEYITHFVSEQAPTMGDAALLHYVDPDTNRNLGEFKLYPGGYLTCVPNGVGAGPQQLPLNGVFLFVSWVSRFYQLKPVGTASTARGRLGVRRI

B1: human mAb 1227 (antibody, V domains shown)
VH: QVQLVQSGGGMVQPGGSLSLSCAASGFTLSNYAMTWVRQAPGKGLEWVSSIGGSGGTTYYADSVKGRFTISRDSSMNTLYLQMSNLRAGDTAVYYCAKDKTRTLRLGYSGMDVWGQGTTVTVSS
VL: DIRLTQSPSSLSASVGDRVTITCRASQSISSYLNWYQQKPGKAPDLLIYGASSLQSGVPSRFSGSGSGTDFTLTISSLQPEDFGNYYCQQSFSTPRTFGQGTKVEL
notes: also called A1227
GI.7 VLP
  EC50: 21 ng/mL
GI.3 VLP
  EC50: 2 ng/mL
GI.6 VLP
  EC50: 2 ng/mL
GI.4 VLP
  EC50: 2 ng/mL
GI.5 VLP
  EC50: 1 ng/mL
GI.2 VLP
  EC50: 2 ng/mL
